Substitutions are numbered along the chain they refer to. Numbers in names are those of the source.

The text below walks through data of patent US20260327578A1, “TRANSGLUTAMINASES AND USES THEREOF” (CURIE CO. INC., priority 2023, published 2026).

B1: S17: Tgase variant S2P Q50S Q74A K91H Q124N K151R K152R relative to SEQ ID NO: 2 (protein, UniProt P81453 77-407, looked up, variant S2P Q50S Q74A K91H Q124N K151R K152R)
Protein-glutamine …: DPDDRVTPPAEPLDRMPDPYRPSYGRAETVVNNYIRKWQQVYSHRDGRKSQMTEEQREWLSYGCVGVTWVNSGAYPTNRLAFASFDEDRFHNELKNGRPRSGETRAEFEGRVAKESFDEEKGFNRAREVASVMNRALENAHDESAYLDNLRRELANGNDALRNEDARSPFYSALRNTPSFKERNGGNHDPSRMKAVIYSKHFWSGQDRSSSADKRKYGDPDAFRPAPGTGLVDMSRDRNIPRSPTSPGEGFVNFDYGWFGAQTEADADKTVWTHGNHYHAPNGSLGAMHVYESKFRNWSEGYSDFDRGAYVITFIPKSWNTAPDKVKQGWP
B2: S3: Tgase variant S2P Q50A relative to SEQ ID NO: 2 (protein, UniProt P81453 77-407, looked up, variant S2P Q50A)
Protein-glutamine …: B1 Protein-glutamine … with S50A, A74Q, H91K, N124Q, R151K, R152K
B3: S2: Tgase variant S2P Q74V relative to SEQ ID NO: 2 (protein, UniProt P81453 77-407, looked up, variant S2P Q74V)
Protein-glutamine …: B1 Protein-glutamine … with S50Q, A74V, H91K, N124Q, R151K, R152K
B4: S4: Tgase variant S2P Q51P relative to SEQ ID NO: 2 (protein, UniProt P81453 77-407, looked up, variant S2P Q51P)
Protein-glutamine …: B1 Protein-glutamine … with S50Q, Q51P, A74Q, H91K, N124Q, R151K, R152K
B5: S21: Tgase variant S2P Q50T Q51A Q74M K95E Q124L K151R K152R relative to SEQ ID NO: 2 (protein, UniProt P81453 77-407, looked up, variant S2P Q50T Q51A Q74M K95E Q124L K151R K152R)
Protein-glutamine …: B1 Protein-glutamine … with S50T, Q51A, A74M, H91K, K95E, N124L
B6: S18: Tgase variant S2P K49H Q50A Q74C Q124L K151R K152R relative to SEQ ID NO: 2 (protein, UniProt P81453 77-407, looked up, variant S2P K49H Q50A Q74C Q124L K151R K152R)
Protein-glutamine …: B1 Protein-glutamine … with K49H, S50A, A74C, H91K, N124L
B7: S20: Tgase variant S2P Q51A Q74T K95I Q124L K151R K152R relative to SEQ ID NO: 2 (protein, UniProt P81453 77-407, looked up, variant S2P Q51A Q74T K95I Q124L K151R K152R)
Protein-glutamine …: B1 Protein-glutamine … with S50Q, Q51A, A74T, H91K, K95I, N124L
B8: S19: Tgase variant S2P K49H Q50A Q74C Q124N K151R K152R relative to SEQ ID NO: 2 (protein, UniProt P81453 77-407, looked up, variant S2P K49H Q50A Q74C Q124N K151R K152R)
Protein-glutamine …: B1 Protein-glutamine … with K49H, S50A, A74C, H91K
B9: S1: Tgase variant S2P Q50H relative to SEQ ID NO: 2 (protein, UniProt P81453 77-407, looked up, variant S2P Q50H)
Protein-glutamine …: B1 Protein-glutamine … with S50H, A74Q, H91K, N124Q, R151K, R152K
B10: A7: Tgase variant S2P Q50S Q74A K91H Q124L K151R K152R N282M G283A S299V relative to SEQ ID NO: 2 (protein, UniProt P81453 77-407, looked up, variant S2P Q50S Q74A K91H Q124L K151R K152R N282M G283A S299V)
Protein-glutamine …: B1 Protein-glutamine … with N124L, N282M, G283A, S299V
B11: A4: Tgase variant S2P Q50S Q74A K91H Q124L K151R K152R N282Q S284A H289I relative to SEQ ID NO: 2 (protein, UniProt P81453 77-407, looked up, variant S2P Q50S Q74A K91H Q124L K151R K152R N282Q S284A H289I)
Protein-glutamine …: B1 Protein-glutamine … with N124L, N282Q, S284A, H289I
B12: A11: Tgase variant S2P D14W Q50S Q74A K91H Q124L S131I K151R K152R N282M G283A S299V relative to SEQ ID NO: 2 (protein, UniProt P81453 77-407, looked up, variant S2P D14W Q50S Q74A K91H Q124L S131I K151R K152R N282M G283A S299V)
Protein-glutamine …: B1 Protein-glutamine … with D14W, N124L, S131I, N282M, G283A, S299V
B13: A5: Tgase variant S2P Q50S Q74A K91H Q124L K151R K152R N282D S284A H289I S299E relative to SEQ ID NO: 2 (protein, UniProt P81453 77-407, looked up, variant S2P Q50S Q74A K91H Q124L K151R K152R N282D S284A H289I S299E)
Protein-glutamine …: B1 Protein-glutamine … with N124L, N282D, S284A, H289I, S299E
B14: A9: Tgase variant S2P Q50S Q74A K91H K95E Q124L K151R K152R N282M G283A S299V relative to SEQ ID NO: 2 (protein, UniProt P81453 77-407, looked up, variant S2P Q50S Q74A K91H K95E Q124L K151R K152R N282M G283A S299V)
Protein-glutamine …: B1 Protein-glutamine … with K95E, N124L, N282M, G283A, S299V
B15: A8: Tgase variant S2P D14W Q50S Q74A K91H Q124L K151R K152R N282M G283A S299A relative to SEQ ID NO: 2 (protein, UniProt P81453 77-407, looked up, variant S2P D14W Q50S Q74A K91H Q124L K151R K152R N282M G283A S299A)
Protein-glutamine …: B1 Protein-glutamine … with D14W, N124L, N282M, G283A, S299A
B16: A10: Tgase variant S2P A10T Q50S Q74A K91H Q124L S131I K151R K152R N282M G283A S299V relative to SEQ ID NO: 2 (protein, UniProt P81453 77-407, looked up, variant S2P A10T Q50S Q74A K91H Q124L S131I K151R K152R N282M G283A S299V)
Protein-glutamine …: B1 Protein-glutamine … with A10T, N124L, S131I, N282M, G283A, S299V
B17: A6: Tgase variant S2P D14W Q50S Q74A K91H Q124L K151R K152R A166W N282M G283A S299V relative to SEQ ID NO: 2 (protein, UniProt P81453 77-407, looked up, variant S2P D14W Q50S Q74A K91H Q124L K151R K152R A166W N282M G283A S299V)
Protein-glutamine …: B1 Protein-glutamine … with D14W, N124L, A166W, N282M, G283A, S299V

The first data set relates to N,N-dimethylcasein. Description: Chemostability: residual Tgase activity after 24 hour incubation at 20-30 °C, normalized to wild-type. The class given is biochemical. Conditions: improvement relative to wild-type mature Tgase (SEQ ID NO: 2); residual activity after 24 h at 20-30 °C in cell-free extract. The protocol:
Table 5 depicts variants of Streptomyces mobaraensis Tgase and improvement to stability relative to wild-type mature Tgase (SEQ ID NO. 2) as determined in Example 3. Numbering of amino acid positions is in reference to the mature S. mobaraensis Tgase sequence depicted in SEQ ID NO. 2. A “+” indicates an improvement between 1.2 and 2-fold. A “++” indicates an improvement greater than 2-fold.
To evaluate chemostability, Tgase samples in cell-free extract were assayed for activity, using the assay described in Example 4B, immediately after expression and again following a 24 hour incubation at 20-30° C. Mature Tgase variant residual activity was normalized to the residual activity of the wild-type and results are depicted in Table 5.
(§1) Protein functionalization by Tgase variants was determined by the fluorogenic labeling of casein using monodansylcadaverine (e.g., a commercially available kit such as the Transglutaminase Fluorogenic Activity Assay Kit, T036, Zedira, Germany). Tgase activity was monitored by measuring fluorescence (excitation wavelength 332 nm; emission wavelength 500 nm) using a BioTek Synergy H1 microplate reader. Transglutaminase-catalyzed covalent coupling (crosslinking) of monodansylcadaverine with N,N-dimethylcasein produces a product that causes a shift in intensity and wavelength of fluorescence of the dansyl group now linked to the casein. The relative transglutaminase activity is shown by increase of fluorescence intensity over time. Enzyme variant loading was optimized based on expression levels, ensuring enzyme was the rate limiting factor. Briefly, cell-free reactions (set up as described in Example 2A) were first diluted 10-fold using phosphate buffer, pH 7.4, and a 5 microliter aliquot was analyzed.
For B1, the Stability result is “+ (an improvement between 1.2 and 2-fold)”.

In the case of B2, the Stability entry is “++ (an improvement greater than 2-fold)”.

As for B3, the Stability entry is reported as “++ (an improvement greater than 2-fold)”.

With B4, the Stability result is “+ (an improvement between 1.2 and 2-fold)”.

For the molecule B5, the Stability entry was “+ (an improvement between 1.2 and 2-fold)”.

Take B6: the Stability entry was “+ (an improvement between 1.2 and 2-fold)”.

On to B7, for which the Stability result was “+ (an improvement between 1.2 and 2-fold)”.

On to B8, for which the Stability entry was “+ (an improvement between 1.2 and 2-fold)”.

Regarding B9, the Stability result is “++ (an improvement greater than 2-fold)”.

In the next data set the test system is N,N-dimethylcasein. Description: Productivity: total product formed after 24 hours (protein functionalization assay). The format is biochemical. Conditions: improvement relative to wild-type Tgase (SEQ ID NO: 2); total product after 24 h. The protocol:
(§2) Enzymatic “productivity” is a measure of product formation or substrate disappearance over time, at a prescribed temperature under specified reaction conditions. It is the measure both the durability and reaction yield of the enzyme variant. In this instance, productivity is defined as total product formed over 24-hours at a constant substrate concentration when the enzyme is the rate limiting factor. The time is defined as 24 hours, which represents approaching or surpassing burnout, denaturation, or self-reaction of the enzyme variant. In other words, variants with higher productivity deliver a higher product yield in 24-hours than variants with lower productivity produce in the same period of time. “Rate” refers to the initial rate for an enzymatic reaction, at a prescribed temperature under specified reaction conditions. The enzyme produces product at an initial rate that is approximately linear for a short period after the start of the reaction. When concentrations of enzyme and substrate are the same across the sample set, initial rates between enzyme variants can be compared. In this instance, the linear range for production of product occurs in one hour. Enzyme variants with faster initial rates deliver a higher product yield in one hour than variants with slower initial rates produce at the same time-period. In some cases, improvements to initial rates also deliver a more productive variant. In some cases, improvements to initial rates result in faster decay of the enzyme variant reducing overall enzymatic productivity. Productivity and rate may be assessed as described in Example 2.
(§3) Table 6 depicts variants of Streptomyces mobaraensis Tgase and improvement to productivity and/or rate relative to wild-type Tgase (SEQ ID NO. 2) as determined in Example 3. Numbering of amino acid positions is in reference to the mature S. mobaraensis Tgase sequence depicted in SEQ ID NO. 2. A “−” indicates a reduction in activity. A “+” indicates an improvement between 1.2 and 2-fold. A “++” indicates an improvement between 2 and 5-fold. A “+++” indicates an improvement greater than 5-fold.
To evaluate productivity, total product formed was measured after 24-hours of incubation, using the assay described in Example 4B. The time is defined as 24 hours which represents approaching or surpassing burnout, denaturation, or self-reaction of the enzyme variant.
as §1
Turning to B10, the Productivity entry is “+ (an improvement between 1.2 and 2-fold)”.

On to B11, for which the Productivity entry is “+ (an improvement between 1.2 and 2-fold)”.

B12: the Productivity entry was “+ (an improvement between 1.2 and 2-fold)”.

Take B13: the Productivity entry is “+ (an improvement between 1.2 and 2-fold)”.

As to B14, the Productivity entry was “+ (an improvement between 1.2 and 2-fold)”.

On to B15, for which the Productivity entry was “+ (an improvement between 1.2 and 2-fold)”.

Regarding B16, the Productivity result was “+ (an improvement between 1.2 and 2-fold)”.

As for B17, the Productivity result is “++ (an improvement between 2 and 5-fold)”.

For another data set, the system named is N,N-dimethylcasein. The experiment in a line: Rate of product formation over 60 minutes (protein functionalization assay). The following applies: improvement relative to wild-type Tgase (SEQ ID NO: 2); initial rate over 60 min. The class given is biochemical. Also on record: key: −: a reduction in activity; +: an improvement between 1.2 and 2-fold; ++: an improvement between 2 and 5-fold; +++: an improvement greater than 5-fold. The protocol: as §2, §3
Rate was assessed by measuring the rate of product formation over 60 minutes of incubation using a kinetic method to take scans every 60 seconds to determine product formation, using reaction conditions as described in Example 4B. The enzyme produces product at an initial rate that is approximately linear for the first one hour of the reaction. The concentrations of enzyme and substrate are the same across the sample set for each enzyme variant. Enzyme variants with faster initial rates deliver a higher product yield in one hour than variants with slower initial rates produce at the same time-period.
as §1
Consider B10, for which the Rate entry was “+ (an improvement between 1.2 and 2-fold)”.

On to B11, for which the Rate result is on record as “−”.

In the case of B12, the Rate result was “+ (an improvement between 1.2 and 2-fold)”.

For the molecule B13, the Rate entry was “−”.

Take B14: the Rate result is “+ (an improvement between 1.2 and 2-fold)”.

For B15, the Rate entry was “++ (an improvement between 2 and 5-fold)”.

Consider B16, for which the Rate entry was “+ (an improvement between 1.2 and 2-fold)”.

Turning to B17, the Rate result is on record as “+++ (an improvement greater than 5-fold)”.
